For this assay, the target named is human cytomegalovirus (HCMV)-encoded chemokine receptor US28, HA-tagged (human cytomegalovirus (HCMV)) (UniProt P69332).
UniProt P69332, sequence (P69332 whole entry): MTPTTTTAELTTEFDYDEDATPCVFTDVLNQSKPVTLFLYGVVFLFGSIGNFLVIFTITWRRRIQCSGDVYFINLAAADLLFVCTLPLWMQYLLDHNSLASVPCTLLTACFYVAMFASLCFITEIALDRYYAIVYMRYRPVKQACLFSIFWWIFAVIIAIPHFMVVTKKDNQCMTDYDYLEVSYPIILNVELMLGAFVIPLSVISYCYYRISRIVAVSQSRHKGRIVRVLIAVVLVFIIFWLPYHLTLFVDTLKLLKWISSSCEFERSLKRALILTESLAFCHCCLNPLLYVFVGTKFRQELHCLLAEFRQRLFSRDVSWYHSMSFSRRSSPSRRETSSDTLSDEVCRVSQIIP

Consider “recombinant human Fractalkine (from UniProt P78423 25-341) (ligand)”, for which the lowest Fractalkine concentration that blocked migration of US28-expressing SMC induced by 40 ng/ml RANTES (competition migration assay) was found to be 10 ng/mL.

These data come from paper PMC2637432.
